Legend:
[1] = target: T1, Arabidopsis thaliana mitochondrial pyruvate dehydrogenase E1α subunit (AtPDC E1α), wild type, H6-tagged (Arabidopsis thaliana, UniProt P52901 18-389); experiment: pull-down; H6-E1α and FLAG-E1β coexpressed in E. coli; soluble fraction on a HiTrap chelating column charged with NiSO4 (immobilized metal affinity chromatography); E1α detected with monoclonal anti-E1α, E1β with anti-FLAG by immunoblot; conditions: partners not purified
T1 sequence (looked up): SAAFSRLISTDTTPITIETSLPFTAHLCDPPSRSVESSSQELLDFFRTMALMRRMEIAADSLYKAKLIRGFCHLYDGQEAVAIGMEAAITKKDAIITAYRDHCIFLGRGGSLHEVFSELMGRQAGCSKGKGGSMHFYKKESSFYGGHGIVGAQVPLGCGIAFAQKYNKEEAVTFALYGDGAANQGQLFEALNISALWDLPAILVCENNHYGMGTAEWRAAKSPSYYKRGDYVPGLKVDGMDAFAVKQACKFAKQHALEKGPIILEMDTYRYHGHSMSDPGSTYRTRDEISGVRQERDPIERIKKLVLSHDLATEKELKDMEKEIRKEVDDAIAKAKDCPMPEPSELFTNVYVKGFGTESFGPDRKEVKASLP

[2] = target: T2, AtPDC E1α G297S mutant, H6-tagged (Arabidopsis thaliana, UniProt P52901 18-389, G297S); experiment: SEC; purified recombinant AtPDC E1 on a Superose 12 column in 50 mM TES-NaOH, pH 7.4, 50 mM NaCl, 0.1 mM TPP, 0.2 mM MgCl2; fractions analysed by SDS-PAGE and immunoblotting; conditions: both partners purified
T2 sequence (looked up): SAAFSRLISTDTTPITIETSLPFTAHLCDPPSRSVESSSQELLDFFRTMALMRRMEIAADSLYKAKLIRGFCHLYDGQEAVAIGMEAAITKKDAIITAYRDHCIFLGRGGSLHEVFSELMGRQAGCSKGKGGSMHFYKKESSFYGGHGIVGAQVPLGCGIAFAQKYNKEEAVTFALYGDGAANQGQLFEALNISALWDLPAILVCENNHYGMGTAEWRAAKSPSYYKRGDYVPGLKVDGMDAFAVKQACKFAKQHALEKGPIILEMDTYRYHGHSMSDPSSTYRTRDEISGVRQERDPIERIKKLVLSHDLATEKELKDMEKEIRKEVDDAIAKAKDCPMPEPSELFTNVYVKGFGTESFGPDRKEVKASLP

[3] = target: T3, AtPDC E1α D295A mutant, H6-tagged (Arabidopsis thaliana, UniProt P52901 18-389, D295A); experiment: as above; conditions: both partners purified
T3 sequence (looked up): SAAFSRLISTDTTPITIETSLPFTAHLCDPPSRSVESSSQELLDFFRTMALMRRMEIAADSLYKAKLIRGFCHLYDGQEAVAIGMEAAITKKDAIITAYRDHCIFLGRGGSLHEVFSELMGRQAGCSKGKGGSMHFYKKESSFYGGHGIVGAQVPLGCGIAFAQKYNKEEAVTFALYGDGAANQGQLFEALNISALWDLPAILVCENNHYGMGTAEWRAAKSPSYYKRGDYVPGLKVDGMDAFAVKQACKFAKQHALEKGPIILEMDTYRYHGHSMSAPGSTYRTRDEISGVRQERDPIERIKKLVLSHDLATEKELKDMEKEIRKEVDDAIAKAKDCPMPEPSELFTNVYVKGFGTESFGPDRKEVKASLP

[4] = target: T4, AtPDC E1α D295N mutant, H6-tagged (Arabidopsis thaliana, UniProt P52901 18-389, D295N); experiment: as above; conditions: both partners purified
T4 sequence (looked up): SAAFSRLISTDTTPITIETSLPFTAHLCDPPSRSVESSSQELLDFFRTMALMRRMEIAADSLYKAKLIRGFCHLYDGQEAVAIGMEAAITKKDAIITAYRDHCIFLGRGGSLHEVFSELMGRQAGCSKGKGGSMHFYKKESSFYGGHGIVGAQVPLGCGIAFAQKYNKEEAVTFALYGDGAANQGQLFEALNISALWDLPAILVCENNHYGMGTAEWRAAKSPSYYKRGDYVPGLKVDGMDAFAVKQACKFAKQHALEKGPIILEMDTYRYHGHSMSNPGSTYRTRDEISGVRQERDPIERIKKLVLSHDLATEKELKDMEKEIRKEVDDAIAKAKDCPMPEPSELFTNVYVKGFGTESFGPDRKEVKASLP

[5] = target: T5, AtPDC E1α S298A mutant, H6-tagged (Arabidopsis thaliana, UniProt P52901 18-389, S298A); experiment: as above; conditions: both partners purified
T5 sequence (looked up): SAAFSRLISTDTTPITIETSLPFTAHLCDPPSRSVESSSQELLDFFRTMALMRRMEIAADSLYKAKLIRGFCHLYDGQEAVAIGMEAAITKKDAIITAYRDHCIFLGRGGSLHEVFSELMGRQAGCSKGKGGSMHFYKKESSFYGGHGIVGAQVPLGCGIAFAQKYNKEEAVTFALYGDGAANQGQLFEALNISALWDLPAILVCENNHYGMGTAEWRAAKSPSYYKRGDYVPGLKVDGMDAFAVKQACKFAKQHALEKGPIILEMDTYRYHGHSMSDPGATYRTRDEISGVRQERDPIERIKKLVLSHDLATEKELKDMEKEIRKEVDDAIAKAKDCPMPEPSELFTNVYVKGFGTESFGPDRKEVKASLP

Measured: binding result

B1: Arabidopsis thaliana mitochondrial pyruvate dehydrogenase E1β subunit (AtPDC E1β), FLAG-tagged (enzyme, UniProt Q38799 30-363, looked up)
chain: AAGAKEMTVRDALNSAIDEEMSADPKVFVMGEEVGQYQGAYKITKGLLEKYGPERVYDTPITEAGFTGIGVGAAYAGLKPVVEFMTFNFSMQAIDHIINSAAKSNYMSAGQINVPIVFRGPNGAAAGVGAQHSQCYAAWYASVPGLKVLAPYSAEDARGLLKAAIRDPDPVVFLENELLYGESFPISEEALDSSFCLPIGKAKIEREGKDVTIVTFSKMVGFALKAAEKLAEEGISAEVINLRSIRPLDRATINASVRKTSRLVTVEEGFPQHGVCAEICASVVEESFSYLDAPVERIAGADVPMPYAANLERLALPQIEDIVRASKRACYRSK
binds: all assays above

Source: PMC3034952 (Enzyme Research, 2011)
